These results are taken from patent publication US20210000909A1.

For this test, the target named is PDZ1/2 domain (UniProt P78352).
Sequence of PDZ1/2 domain (P78352 61-249 limits assumed): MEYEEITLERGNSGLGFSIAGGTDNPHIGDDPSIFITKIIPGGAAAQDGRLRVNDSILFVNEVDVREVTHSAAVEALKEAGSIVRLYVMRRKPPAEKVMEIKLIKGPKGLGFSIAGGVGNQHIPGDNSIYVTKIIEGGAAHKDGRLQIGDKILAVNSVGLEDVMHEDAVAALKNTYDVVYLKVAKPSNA

Regarding control chimeric peptide NA-1, the Kd was 75.3 nM.
